Target: the molecule itself
Assay: in vitro polymerisation seen by epifluorescence microscopy; Ni-NTA-purified FtsZ-His labelled with NHS-Fluorescein, in FtsZ polymerization buffer (50 mM MES, 50 mM KCl, 10 mM MgCl2, 2 mM GTP, pH 6.5), 40 min at 30 °C

B1: Polyhistidine tagged FtsZ from Anabaena sp. PCC 7120 (natural protein, UniProt P45482 1-428, looked up)
chain: MTLDNNQELTYRNSQSLGQPGFSLAVNSSNPFNHSGLNFGQNNDSKKISVENNRIGEIVPGRVANIKVIGVGGGGGNAVNRMIESDVSGVEFWSINTDAQALTLAGAPSRLQIGQKLTRGLGAGGNPAIGQKAAEESRDEIATALEGADLVFITAGMGGGTGTGAAPIVAEVAKEMGALTVGVVTRPFVFEGRRRTSQAEQGIEGLKSRVDTLIIIPNNKLLEVIPEQTPVQEAFRYADDVLRQGVQGISDIITIPGLVNVDFADVRAVMADAGSALMGIGVSSGKSRAREAAIAAISSPLLECSIEGARGVVFNITGGSDLTLHEVNAAAETIYEVVDPNANIIFGAVIDDRLQGEVRITVIATGFTGEIQAAPQQNAANARVVSAPPKRTPTQTPLTNSPAPTPEPKEKSGLDIPDFLQRRRPPKN
modifications: labelled with NHS-Fluorescein
notes: FtsZ of Anabaena sp; PCC 7120; also called FtsZAna-His; FtsZ-His; source: E. coli BL21 (DE3), purified (Ni-NTA)
B1: binds.

B2: Polyhistidine tagged FtsZ from Fischerella muscicola PCC 7414 (natural protein, UniProt A0A2N6JXP9 1-430, looked up)
chain: MTLDNNQGLTYKNSQSPGQSTFSLAVNSTNPFNHSGLSFGQNNDSKKIEREETRIGDIVPGRVANIKVIGVGGGGSNAVNRMIASDVSGVEFWSINTDAQALTLAAAPSRLQIGQKLTRGLGAGGNPAIGTKAAEESRDEIATALDGADLVFITAGMGGGTGTGAAPIVAEVAKEMGALTVGVVTRPFIFEGRRRISQAEQGIEGLKSRVDTLIIIPNNKLLEVIPEQTPMQEAFRYADDVLRQGVQGISDIITIPGLINVDFADVRAVMADAGSALMGIGIGSGKSRAREAAIAAISSPLLECSIEGARGVVFNITGGSDLTLHEVNAAAETIYEVVDPNANIIFGAVIDDRLQGEVRLTVIATGFTGEAPAAQQSNVTQGRVVQPPPQRRPMQQPPAPNPPTQTPEPKEKGSVLDIPDFLRKRTPPRN
modifications: labelled with NHS-Fluorescein
notes: FtsZ of Fischerella muscicola PCC 7414; also called FtsZFm-His; FtsZ-His; source: E. coli BL21 (DE3), purified (Ni-NTA)
B2: binds.

From publication PMC7714070, “The role of the cytoskeletal proteins MreB and FtsZ in multicellular cyanobacteria” (FEBS Open Bio, 2020)
